The values that follow come from paper PMC3898117 (Biochemical Journal, 2013).

The assay has as its target recombinant RNMT (RNA guanine-7 methyltransferase) (UniProt O43148 1-476). The assay can be described thus: cell-based or functional assay.

Chain of recombinant RNMT (RNA guanine-7 methyltransferase) (O43148 whole entry): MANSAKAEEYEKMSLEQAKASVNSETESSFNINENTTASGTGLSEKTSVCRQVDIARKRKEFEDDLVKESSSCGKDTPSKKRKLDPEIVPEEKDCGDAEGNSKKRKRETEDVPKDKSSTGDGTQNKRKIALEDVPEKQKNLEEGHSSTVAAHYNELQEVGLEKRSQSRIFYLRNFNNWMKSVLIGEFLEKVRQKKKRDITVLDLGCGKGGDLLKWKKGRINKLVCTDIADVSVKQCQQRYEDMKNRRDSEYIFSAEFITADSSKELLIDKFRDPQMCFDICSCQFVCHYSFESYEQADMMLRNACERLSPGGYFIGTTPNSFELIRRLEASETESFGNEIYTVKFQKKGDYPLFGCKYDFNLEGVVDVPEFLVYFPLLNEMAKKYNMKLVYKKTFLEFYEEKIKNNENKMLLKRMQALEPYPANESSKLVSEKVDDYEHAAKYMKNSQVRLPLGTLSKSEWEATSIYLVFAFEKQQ

B1: GST–RAM 1–55 (domain or fragment, human, UniProt Q9BTL3 1-55, looked up)
chain: MTDTAEAVPKFEEMFASRFTENDKEYQEYLKRPPESPPIVEEWNSRAGGNQRNRG
In the case of B1, the “in vitro cap methyltransferase activity of 15 nM RNMT pre-incubated with 15 nM GST–RAM 1–55, compared with GST control” value was > 5 fold.
